According to publication PMC4872100:
pKd: −log10 of the molar value.

Key:
Assay in all cases: SPR
[1] = target: human uracil DNA glycosylase (human UDG) (human) (UniProt P13051)
[2] = target: Mycobacterium tuberculosis uracil DNA glycosylase (TBUDG) (Mycobacterium tuberculosis) (UniProt P9WFQ9)
[3] = target: Epstein-Barr virus (human herpesvirus 4) uracil DNA glycosylase (EBVUDG) (Epstein-Barr virus (EBV; human herpesvirus 4)) (UniProt P12888)

Substance | pKd [1] | koff [1] [s⁻¹] | kon [1] [M⁻¹ s⁻¹] | pKd [2] | ka1 (two-state model, step 1) [2] [M⁻¹ s⁻¹] | ka2 (two-state model, step 2) [2] [M⁻¹ s⁻¹] | kd1 (two-state model, step 1) [2] [s⁻¹] | pKd [3] | koff [3] [s⁻¹] | kon [3] [M⁻¹ s⁻¹]
SAUGI E24AQ52R (natural protein) | 8.48 | 0.00529 | 1.6e+06 | – | – | – | – | – | – | –
Staphylococcus aureus uracil-DNA glycosylase inhibitor SAUGI (natural protein) | 8.71 | 0.00361 | 1.85e+06 | 6.70 | 4.32e+06 | 20 | 1.39 | 9.32 | 0.0012 | 2.54e+06
